Sequences and labels used below:
B1: Peptide 60 (SEQ ID NO: 60) (peptide)
peptide: K([γGlu-C18 diacid])CNTATCATQRLANFLVHSS[Aib]NFGPIL[dP]PTNVGSNTY-NH2
modifications: disulfide 2-7; N-terminus assumed
SMILES: CC[C@H](C)[C@H](NC(=O)[C@@H]1CCCN1C(=O)CNC(=O)[C@H](Cc1ccccc1)NC(=O)[C@H](CC(N)=O)NC(=O)C(C)(C)NC(=O)[C@H](CO)NC(=O)[C@H](CO)NC(=O)[C@H](Cc1c[nH]cn1)NC(=O)[C@@H](NC(=O)[C@H](CC(C)C)NC(=O)[C@H](Cc1ccccc1)NC(=O)[C@H](CC(N)=O)NC(=O)[C@H](C)NC(=O)[C@H](CC(C)C)NC(=O)[C@H](CCCNC(=N)N)NC(=O)[C@H](CCC(N)=O)NC(=O)[C@@H](NC(=O)[C@H](C)NC(=O)[C@@H]1CSSC[C@H](NC(=O)[C@@H](N)CCCCNC(=O)CC[C@H](NC(=O)CCCCCCCCCCCCCCCCC(=O)O)C(=O)O)C(=O)N[C@@H](CC(N)=O)C(=O)N[C@@H]([C@@H](C)O)C(=O)N[C@@H](C)C(=O)N[C@@H]([C@@H](C)O)C(=O)N1)[C@@H](C)O)C(C)C)C(=O)N[C@@H](CC(C)C)C(=O)N1CCC[C@@H]1C(=O)N1CCC[C@H]1C(=O)N[C@H](C(=O)N[C@@H](CC(N)=O)C(=O)N[C@H](C(=O)NCC(=O)N[C@@H](CO)C(=O)N[C@@H](CC(N)=O)C(=O)N[C@H](C(=O)N[C@@H](Cc1ccc(O)cc1)C(N)=O)[C@@H](C)O)C(C)C)[C@@H](C)O
B2: Peptide 55 (SEQ ID NO: 55) (peptide)
peptide: K([γGlu-C18 diacid])KCNTATCATQRLANFLSHSS[Aib]NFGPILPPTNVGSPTY-NH2
modifications: disulfide 3-8; N-terminus assumed
SMILES: CC[C@H](C)[C@H](NC(=O)[C@@H]1CCCN1C(=O)CNC(=O)[C@H](Cc1ccccc1)NC(=O)[C@H](CC(N)=O)NC(=O)C(C)(C)NC(=O)[C@H](CO)NC(=O)[C@H](CO)NC(=O)[C@H](Cc1c[nH]cn1)NC(=O)[C@H](CO)NC(=O)[C@H](CC(C)C)NC(=O)[C@H](Cc1ccccc1)NC(=O)[C@H](CC(N)=O)NC(=O)[C@H](C)NC(=O)[C@H](CC(C)C)NC(=O)[C@H](CCCNC(=N)N)NC(=O)[C@H](CCC(N)=O)NC(=O)[C@@H](NC(=O)[C@H](C)NC(=O)[C@@H]1CSSC[C@H](NC(=O)[C@H](CCCCN)NC(=O)[C@@H](N)CCCCNC(=O)CC[C@H](NC(=O)CCCCCCCCCCCCCCCCC(=O)O)C(=O)O)C(=O)N[C@@H](CC(N)=O)C(=O)N[C@@H]([C@@H](C)O)C(=O)N[C@@H](C)C(=O)N[C@@H]([C@@H](C)O)C(=O)N1)[C@@H](C)O)C(=O)N[C@@H](CC(C)C)C(=O)N1CCC[C@H]1C(=O)N1CCC[C@H]1C(=O)N[C@H](C(=O)N[C@@H](CC(N)=O)C(=O)N[C@H](C(=O)NCC(=O)N[C@@H](CO)C(=O)N1CCC[C@H]1C(=O)N[C@H](C(=O)N[C@@H](Cc1ccc(O)cc1)C(N)=O)[C@@H](C)O)C(C)C)[C@@H](C)O
B3: Peptide 56 (SEQ ID NO: 56) (peptide)
peptide: K([γGlu-C18 diacid])CNTATCATQRLANFLVHSS[Aib]NFGPILPPTNVGSNTY-NH2
modifications: disulfide 2-7; N-terminus assumed
SMILES: CC[C@H](C)[C@H](NC(=O)[C@@H]1CCCN1C(=O)CNC(=O)[C@H](Cc1ccccc1)NC(=O)[C@H](CC(N)=O)NC(=O)C(C)(C)NC(=O)[C@H](CO)NC(=O)[C@H](CO)NC(=O)[C@H](Cc1c[nH]cn1)NC(=O)[C@@H](NC(=O)[C@H](CC(C)C)NC(=O)[C@H](Cc1ccccc1)NC(=O)[C@H](CC(N)=O)NC(=O)[C@H](C)NC(=O)[C@H](CC(C)C)NC(=O)[C@H](CCCNC(=N)N)NC(=O)[C@H](CCC(N)=O)NC(=O)[C@@H](NC(=O)[C@H](C)NC(=O)[C@@H]1CSSC[C@H](NC(=O)[C@@H](N)CCCCNC(=O)CC[C@H](NC(=O)CCCCCCCCCCCCCCCCC(=O)O)C(=O)O)C(=O)N[C@@H](CC(N)=O)C(=O)N[C@@H]([C@@H](C)O)C(=O)N[C@@H](C)C(=O)N[C@@H]([C@@H](C)O)C(=O)N1)[C@@H](C)O)C(C)C)C(=O)N[C@@H](CC(C)C)C(=O)N1CCC[C@H]1C(=O)N1CCC[C@H]1C(=O)N[C@H](C(=O)N[C@@H](CC(N)=O)C(=O)N[C@H](C(=O)NCC(=O)N[C@@H](CO)C(=O)N[C@@H](CC(N)=O)C(=O)N[C@H](C(=O)N[C@@H](Cc1ccc(O)cc1)C(N)=O)[C@@H](C)O)C(C)C)[C@@H](C)O
B4: Peptide 61 (SEQ ID NO: 61) (peptide)
peptide: K([γGlu-C18 diacid])CNTATCATQRLANFLVHSS[Aib]NFGP[dI]LPPTNVGSNTY-NH2
modifications: disulfide 2-7; N-terminus assumed
SMILES: CC[C@@H](C)[C@@H](NC(=O)[C@@H]1CCCN1C(=O)CNC(=O)[C@H](Cc1ccccc1)NC(=O)[C@H](CC(N)=O)NC(=O)C(C)(C)NC(=O)[C@H](CO)NC(=O)[C@H](CO)NC(=O)[C@H](Cc1c[nH]cn1)NC(=O)[C@@H](NC(=O)[C@H](CC(C)C)NC(=O)[C@H](Cc1ccccc1)NC(=O)[C@H](CC(N)=O)NC(=O)[C@H](C)NC(=O)[C@H](CC(C)C)NC(=O)[C@H](CCCNC(=N)N)NC(=O)[C@H](CCC(N)=O)NC(=O)[C@@H](NC(=O)[C@H](C)NC(=O)[C@@H]1CSSC[C@H](NC(=O)[C@@H](N)CCCCNC(=O)CC[C@H](NC(=O)CCCCCCCCCCCCCCCCC(=O)O)C(=O)O)C(=O)N[C@@H](CC(N)=O)C(=O)N[C@@H]([C@@H](C)O)C(=O)N[C@@H](C)C(=O)N[C@@H]([C@@H](C)O)C(=O)N1)[C@@H](C)O)C(C)C)C(=O)N[C@@H](CC(C)C)C(=O)N1CCC[C@H]1C(=O)N1CCC[C@H]1C(=O)N[C@H](C(=O)N[C@@H](CC(N)=O)C(=O)N[C@H](C(=O)NCC(=O)N[C@@H](CO)C(=O)N[C@@H](CC(N)=O)C(=O)N[C@H](C(=O)N[C@@H](Cc1ccc(O)cc1)C(N)=O)[C@@H](C)O)C(C)C)[C@@H](C)O
B5: Peptide 58 (SEQ ID NO: 58) (peptide)
peptide: K([γGlu-C18 diacid])KCNTATCATQRLANFLVHSS[Aib]NFGPILPPTNVGSNTP-NH2
modifications: disulfide 3-8; N-terminus assumed
SMILES: CC[C@H](C)[C@H](NC(=O)[C@@H]1CCCN1C(=O)CNC(=O)[C@H](Cc1ccccc1)NC(=O)[C@H](CC(N)=O)NC(=O)C(C)(C)NC(=O)[C@H](CO)NC(=O)[C@H](CO)NC(=O)[C@H](Cc1c[nH]cn1)NC(=O)[C@@H](NC(=O)[C@H](CC(C)C)NC(=O)[C@H](Cc1ccccc1)NC(=O)[C@H](CC(N)=O)NC(=O)[C@H](C)NC(=O)[C@H](CC(C)C)NC(=O)[C@H](CCCNC(=N)N)NC(=O)[C@H](CCC(N)=O)NC(=O)[C@@H](NC(=O)[C@H](C)NC(=O)[C@@H]1CSSC[C@H](NC(=O)[C@H](CCCCN)NC(=O)[C@@H](N)CCCCNC(=O)CC[C@H](NC(=O)CCCCCCCCCCCCCCCCC(=O)O)C(=O)O)C(=O)N[C@@H](CC(N)=O)C(=O)N[C@@H]([C@@H](C)O)C(=O)N[C@@H](C)C(=O)N[C@@H]([C@@H](C)O)C(=O)N1)[C@@H](C)O)C(C)C)C(=O)N[C@@H](CC(C)C)C(=O)N1CCC[C@H]1C(=O)N1CCC[C@H]1C(=O)N[C@H](C(=O)N[C@@H](CC(N)=O)C(=O)N[C@H](C(=O)NCC(=O)N[C@@H](CO)C(=O)N[C@@H](CC(N)=O)C(=O)N[C@H](C(=O)N1CCC[C@H]1C(N)=O)[C@@H](C)O)C(C)C)[C@@H](C)O
B6: Peptide 59 (SEQ ID NO: 59) (peptide)
peptide: K([γGlu-C18 diacid])CNTATCATQRLANFLVHSS[Aib]NFGPI[dL]PPTNVGSNTY-NH2
modifications: disulfide 2-7; N-terminus assumed
SMILES: CC[C@H](C)[C@H](NC(=O)[C@@H]1CCCN1C(=O)CNC(=O)[C@H](Cc1ccccc1)NC(=O)[C@H](CC(N)=O)NC(=O)C(C)(C)NC(=O)[C@H](CO)NC(=O)[C@H](CO)NC(=O)[C@H](Cc1c[nH]cn1)NC(=O)[C@@H](NC(=O)[C@H](CC(C)C)NC(=O)[C@H](Cc1ccccc1)NC(=O)[C@H](CC(N)=O)NC(=O)[C@H](C)NC(=O)[C@H](CC(C)C)NC(=O)[C@H](CCCNC(=N)N)NC(=O)[C@H](CCC(N)=O)NC(=O)[C@@H](NC(=O)[C@H](C)NC(=O)[C@@H]1CSSC[C@H](NC(=O)[C@@H](N)CCCCNC(=O)CC[C@H](NC(=O)CCCCCCCCCCCCCCCCC(=O)O)C(=O)O)C(=O)N[C@@H](CC(N)=O)C(=O)N[C@@H]([C@@H](C)O)C(=O)N[C@@H](C)C(=O)N[C@@H]([C@@H](C)O)C(=O)N1)[C@@H](C)O)C(C)C)C(=O)N[C@H](CC(C)C)C(=O)N1CCC[C@H]1C(=O)N1CCC[C@H]1C(=O)N[C@H](C(=O)N[C@@H](CC(N)=O)C(=O)N[C@H](C(=O)NCC(=O)N[C@@H](CO)C(=O)N[C@@H](CC(N)=O)C(=O)N[C@H](C(=O)N[C@@H](Cc1ccc(O)cc1)C(N)=O)[C@@H](C)O)C(C)C)[C@@H](C)O

Numbered stars: 1 amine (or outer) side, 2 acyl side, 3 side chain; on linkers, the order of the positions; unused ones are H or OH. Bridge positions count the residues as written; N and C are the ends. Square brackets hold non-standard residues; d marks the D form. Side chains are listed from the residue outwards. Ends that are not written are not given here. * marks the point of attachment. C18 diacid = O=C(O)CCCCCCCCCCCCCCCCC(=O)*; γGlu = O=C(O)[C@H](CCC(=O)[*:2])N[*:1]; Aib = CC(C)(N)C(=O)O

In one test the target is T1, human calcitonin receptor (human, UniProt P30988 25-474).
T1 sequence (looked up): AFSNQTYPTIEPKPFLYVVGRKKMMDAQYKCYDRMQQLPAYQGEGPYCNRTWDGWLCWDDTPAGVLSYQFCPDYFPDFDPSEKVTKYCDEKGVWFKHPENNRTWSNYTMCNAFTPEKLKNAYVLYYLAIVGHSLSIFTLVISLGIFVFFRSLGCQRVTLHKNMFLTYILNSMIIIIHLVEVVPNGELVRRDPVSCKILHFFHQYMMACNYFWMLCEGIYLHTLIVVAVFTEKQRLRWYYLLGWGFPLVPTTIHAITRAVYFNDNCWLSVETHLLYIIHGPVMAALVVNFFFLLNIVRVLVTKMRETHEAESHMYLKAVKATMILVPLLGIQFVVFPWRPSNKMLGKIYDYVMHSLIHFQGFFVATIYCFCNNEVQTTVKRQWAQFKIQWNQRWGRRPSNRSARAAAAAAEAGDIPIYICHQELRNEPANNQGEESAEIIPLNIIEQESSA
Description: cell-based or functional assay.
Turning to B1, the “EC50 (cAMP production)” value worked out at 1030 pM.

As to B2, the “EC50 (cAMP production)” value is 1870 pM.

For the molecule B3, the “EC50 (cAMP production)” value was 493 pM.

Consider B4, for which the “EC50 (cAMP production)” value came to 654 pM.

Take B5: the “EC50 (cAMP production)” value amounted to 65 pM.

Take B6: the “EC50 (cAMP production)” value was found to be 809 pM.

The target of another test is T2, human amylin receptor (calcitonin receptor co-expressed with receptor activity modifying protein, RAMP3) (human, UniProt P30988 25-474; O60896 24-148).
T2 sequence (looked up) 1: T1 sequence (looked up)
T2 sequence (looked up) 2: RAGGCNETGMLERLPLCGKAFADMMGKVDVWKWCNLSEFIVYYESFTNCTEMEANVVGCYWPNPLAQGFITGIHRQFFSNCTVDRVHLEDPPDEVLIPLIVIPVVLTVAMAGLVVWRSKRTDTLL
Description: cell-based or functional assay.
With B1, the “EC50 (cAMP production)” value is 96 pM and the “Ratio (EC50 hCTR / EC50 hAMYR3)” value amounted to 11.

On to B2, for which the “EC50 (cAMP production)” value was found to be 678 pM and the “Ratio (EC50 hCTR / EC50 hAMYR3)” value stood at 3.

For B3, the “EC50 (cAMP production)” value was determined as 70 pM and the “Ratio (EC50 hCTR / EC50 hAMYR3)” value was 7.

Turning to B4, the “EC50 (cAMP production)” value was 99 pM and the “Ratio (EC50 hCTR / EC50 hAMYR3)” value is 7.

Take B5: the “EC50 (cAMP production)” value is 71 pM and the “Ratio (EC50 hCTR / EC50 hAMYR3)” value is 1.

As for B6, the “EC50 (cAMP production)” value is 157 pM and the “Ratio (EC50 hCTR / EC50 hAMYR3)” value is 5.

(Values after patent publication US20220204580A1 (AstraZeneca / MedImmune, published 2022).)
